From publication PMC13466322, “Immunoglobulin Superfamily Protein BTNL9 Functions as a Non-Canonical Transcriptional Regulator to Suppress NSCLC Through Cell Cycle and p53 Pathways” (International Journal of Molecular Sciences, 2026)

Molecular target: the molecule itself
Assay: native gel or EMSA; lysates of A549 and NCI-H460 cells in RIPA buffer; non-reducing LDS sample buffer; NativePAGE Bis-Tris 3-12% gel, run 1.5 h; Western blot; interpreted qualitatively

B1: Butyrophilin-like 9 (BTNL9), wild type, FLAG-tagged or AM-tagged (natural protein, human, UniProt Q6UXG8-1 35-535, looked up)
chain: SSEVKVLGPEYPILALVGEEVEFPCHLWPQLDAQQMEIRWFRSQTFNVVHLYQEQQELPGRQMPAFRNRTKLVKDDIAYGSVVLQLHSIIPSDKGTYGCRFHSDNFSGEALWELEVAGLGSDPHLSLEGFKEGGIQLRLRSSGWYPKPKVQWRDHQGQCLPPEFEAIVWDAQDLFSLETSVVVRAGALSNVSVSIQNLLLSQKKELVVQIADVFVPGASAWKSAFVATLPLLLVLAALALGVLRKQRRSREKLRKQAEKRQEKLTAELEKLQTELDWRRAEGQAEWRAAQKYAVDVTLDPASAHPSLEVSEDGKSVSSRGAPPGPAPGHPQRFSEQTCALSLERFSAGRHYWEVHVGRRSRWFLGACLAAVPRAGPARLSPAAGYWVLGLWNGCEYFVLAPHRVALTLRVPPRRLGVFLDYEAGELSFFNVSDGSHIFTFHDTFSGALCAYFRPRAHDGGEHPDPLTICPLPVRGTGVPEENDSDTWLQPYEPADPALDWW
notes: bZIP domain annotated at residues 281-317; Two differently tagged copies of the same wild-type protein (FLAG copy as bait, AM-tag copy as prey) are written as one molecule; Each copy carries only one of the two tags; also called WT; BTNL9-FLAG; source: A549 and NCI-H460 cells, lentiviral infection, in lysate
For B1, the “stoichiometry N” value was 2.
